Like-named read-outs stand apart in the source and are kept apart here. Square brackets hold non-standard residues; d marks the D form. Cha = N[C@@H](CC1CCCCC1)C(=O)O
How the values were obtained:
[1] = target: Acinetobacter baumannii sliding clamp (Acinetobacter baumannii); assay: ITC, 25 C
[2] = target: T1, Escherichia coli sliding clamp (bacterial processivity factor, dnaN gene product) (Escherichia coli), P0A988; assay: ITC, 25 C
[3] = target: T2, Pseudomonas aeruginosa sliding clamp (Pseudomonas aeruginosa), Q9I7C4; assay: ITC, 25 C
T2 chain: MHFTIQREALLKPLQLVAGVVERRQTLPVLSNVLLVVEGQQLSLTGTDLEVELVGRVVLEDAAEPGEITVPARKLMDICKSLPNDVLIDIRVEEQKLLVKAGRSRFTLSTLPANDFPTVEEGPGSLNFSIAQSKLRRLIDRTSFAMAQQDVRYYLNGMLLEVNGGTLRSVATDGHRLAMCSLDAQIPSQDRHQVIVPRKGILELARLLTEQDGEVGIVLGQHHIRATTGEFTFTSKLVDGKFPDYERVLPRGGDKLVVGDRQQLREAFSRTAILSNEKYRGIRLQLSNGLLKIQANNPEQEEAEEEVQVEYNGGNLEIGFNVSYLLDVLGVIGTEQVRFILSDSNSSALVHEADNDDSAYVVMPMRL

[4] = target: T1, Escherichia coli sliding clamp …; assay: ITC, 25 C; remark: listed apart in the source
[5] = target: T1, Escherichia coli sliding clamp …; assay: kinITC

B1: Ac-Gln-Cha-Asp-Leu-Phe-OH (peptide 1) (peptide)
peptide: Ac-Q[Cha]DLF-OH
B1 showed a Kd [1] of 655 nM, a Kd [2] of 170 nM and a Kd [3] of 600 nM. For the same binder, the Kd [4] was 194 nM, the ΔG [4] was -9.2 kcal/mol and the koff [5] was 0.0074 s⁻¹. The kon [5] was 40000 M⁻¹ s⁻¹.

Source: US20230312646A1, “ANTIBACTERIAL PEPTIDES” (priority 2020, published 2023)
